Laboratory results taken from patent US20190106510A1 (CELLDEX THERAPEUTICS, published 2019).

What was measured:
recombinant KIT D4/D5 [1] = molecular target: T1, recombinant KIT D4/D5 (human, UniProt P10721 26-519); experiment: direct binding ELISA, plate-coated recombinant KIT D4/D5; assay #2 (supernatant)
T1 construct: also called recombinant c-Kit Ig-like domains D4/D5; recombinant polypeptide of the D4/D5 region of human KIT
Experimental: (§1) The binding affinity of the anti-KIT antibodies to the target antigen KIT Ig-like domains D4/D5 was assessed by direct binding ELISA. […] Bound antibody was detected with anti-human Ig-HRP followed by detection using TMB substrate.

[2] = molecular target: full-length, wild-type human KIT expressed on CHO cells (human, UniProt P10721 26-976); experiment: cell-based or functional assay
recombinant KIT D4/D5 [3] = molecular target: T1, recombinant KIT D4/D5; experiment: direct binding ELISA, plate-coated recombinant KIT D4/D5; assay #1 (supernatant)
Experimental: as §1

recombinant KIT D4/D5 [4] = molecular target: T1, recombinant KIT D4/D5; experiment: direct binding ELISA, plate-coated recombinant KIT D4/D5; assay #3 (purified)
Experimental: as §1

recombinant KIT D4/D5 [5] = molecular target: T1, recombinant KIT D4/D5; experiment: direct binding ELISA, plate-coated recombinant KIT D4/D5; assay #4 (purified)
Experimental: as §1

Chain of full-length, wild-type human KIT expressed on CHO cells (P10721 other isoform, or with tags, fused parts or gaps limits assumed): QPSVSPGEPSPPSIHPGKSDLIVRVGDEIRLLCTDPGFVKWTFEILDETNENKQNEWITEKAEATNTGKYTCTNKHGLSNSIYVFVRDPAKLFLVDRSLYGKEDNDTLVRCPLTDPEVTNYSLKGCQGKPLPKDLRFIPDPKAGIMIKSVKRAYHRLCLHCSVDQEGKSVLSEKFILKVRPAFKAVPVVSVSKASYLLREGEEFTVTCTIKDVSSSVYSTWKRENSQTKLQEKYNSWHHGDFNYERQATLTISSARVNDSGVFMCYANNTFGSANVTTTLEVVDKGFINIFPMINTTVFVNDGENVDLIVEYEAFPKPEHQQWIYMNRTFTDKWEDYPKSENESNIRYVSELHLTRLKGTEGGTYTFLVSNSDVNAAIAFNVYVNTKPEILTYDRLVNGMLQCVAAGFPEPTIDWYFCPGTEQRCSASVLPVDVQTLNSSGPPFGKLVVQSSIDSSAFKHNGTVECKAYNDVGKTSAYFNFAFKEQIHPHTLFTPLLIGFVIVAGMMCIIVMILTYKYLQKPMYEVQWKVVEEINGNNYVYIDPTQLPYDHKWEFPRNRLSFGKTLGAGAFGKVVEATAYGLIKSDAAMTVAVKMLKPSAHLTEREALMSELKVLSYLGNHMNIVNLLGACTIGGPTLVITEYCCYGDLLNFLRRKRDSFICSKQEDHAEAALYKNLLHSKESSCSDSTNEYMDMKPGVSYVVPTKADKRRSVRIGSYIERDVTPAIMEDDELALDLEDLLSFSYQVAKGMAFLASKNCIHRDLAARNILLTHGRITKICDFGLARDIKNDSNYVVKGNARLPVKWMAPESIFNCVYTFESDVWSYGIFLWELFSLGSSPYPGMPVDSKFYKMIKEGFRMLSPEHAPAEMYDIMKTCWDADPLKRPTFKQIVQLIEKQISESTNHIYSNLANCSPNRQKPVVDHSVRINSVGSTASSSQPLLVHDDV
T1 sequence (P10721 other isoform, or with tags, fused parts or gaps limits assumed): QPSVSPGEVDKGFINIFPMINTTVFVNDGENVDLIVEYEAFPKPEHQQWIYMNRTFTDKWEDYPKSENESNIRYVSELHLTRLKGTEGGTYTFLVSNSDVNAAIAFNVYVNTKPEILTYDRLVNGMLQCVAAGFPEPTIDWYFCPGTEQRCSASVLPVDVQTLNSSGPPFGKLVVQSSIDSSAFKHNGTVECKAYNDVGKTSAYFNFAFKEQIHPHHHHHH

Binder | Relative binding activity (recombinant KIT D4/D5 [1]) | Relative binding activity (recombinant KIT D4/D5 [3]) | Relative binding activity (recombinant KIT D4/D5 [4]) | also measured
Hum1 (antibody, V domains shown, Variable regions cloned into expression vectors for human IgG1 VH chains and human V kappa chains) VH: QVQLVQSGAELKKPGASVKLSCKASGYTFTDYYINWVKQAPGKGLEWIARIYPGSGNTYYNEKFKGRATLTAEKSTSTAYMQLSSLRSEDSAVYFCARGVYYFDYWGQGTTVTVSS VL: DIVMTQSPSFLSASVGDRVTITCKASQNVRTNVAWYQQKPGKAPKALIYSASYRYSGVPDRFTGSGSGTDFTLTISSLQSEDFADYFCQQYNSYPRTFGGGTKVEIK | 0.64 relative to chimeric antibody 37C (normalized EC50) | – | – | –
Hum14 (antibody, V domains shown) VH: QVQLVQSGAEVKKPGASVKVSCKASGYTFTDYYINWVRQAPGKGLEWIARIYPGSGNTYYNEKFKGRATITADKSTSTAYMELSSLRSEDTAVYFCARGVYYFDYWGQGTTVTVSS VL: DIVMTQSPSSLSASVGDRVTITCKASQNVRTNVAWYQQKPGKAPKALIYSASYRYSGVPDRFSGSGSGTDFTLTISSLQPEDFADYFCQQYNSYPRTFGGGTKVEIK | 1.03 relative to chimeric antibody 37C (normalized EC50) | 1.14 relative to chimeric antibody 37C (normalized EC50) | 0.74 relative to chimeric antibody 37C (normalized EC50) | Relative blocking activity, assay #2 (24-well): IC50 of inhibition of SCF-induced KIT phosphorylation, normalized to chimeric 37M antibody [2]: 0.94 relative to chimeric 37M antibody
Hum11 (antibody, V domains shown) VH: QVQLVQSGAELKKPGASVKLSCKASGYTFTDYYINWVKQAPGKGLEWIARIYPGSGNTYYNEKFKGRATLTAEKSTSTAYMQLSSLRSEDSAVYFCARGVYYFDYWGQGTTVTVSS VL: DIVMTQSPSSLSASVGDRVTITCKASQNVRTNVAWYQQKPGKAPKALIYSASYRYSGVPDRFSGSGSGTDFTLTISSLQPEDFADYFCQQYNSYPRTFGGGTKVEIK | 0.74 relative to chimeric antibody 37C (normalized EC50) | – | – | –
Hum5 (antibody, V domains shown) VH: QVQLVQSGAEVKKPGASVKVSCKASGYTFTDYYINWVRQAPGKGLEWIARIYPGSGNTYYNEKFKGRVTITADKSTSTAYMELSSLRSEDTAVYFCARGVYYFDYWGQGTTVTVSS VL: DIVMTQSPSFLSASVGDRVTITCKASQNVRTNVAWYQQKPGKAPKALIYSASYRYSGVPDRFTGSGSGTDFTLTISSLQSEDFADYFCQQYNSYPRTFGGGTKVEIK | 0.93 relative to chimeric antibody 37C (normalized EC50) | – | – | –
Hum19 (antibody, V domains shown) VH: QVQLVQSGAEVKKPGASVKVSCKASGYTFTDYYINWVRQAPGKGLEWIARIYPGSGNTYYNEKFKGRATITADKSTSTAYMELSSLRSEDTAVYFCARGVYYFDYWGQGTTVTVSS VL: DIVMTQSPSSLSASVGDRVTITCKASQNVRTNVAWYQQKPGKAPKSLIYSASYRYSGVPDRFSGSGSGTDFTLTISSLQPEDFATYYCQQYNSYPRTFGGGTKVEIK | 1.05 relative to chimeric antibody 37C (normalized EC50) | 1.11 relative to chimeric antibody 37C (normalized EC50) | 0.95 relative to chimeric antibody 37C (normalized EC50) | Relative blocking activity, assay #1 (24-well): IC50 of inhibition of SCF-induced KIT phosphorylation, normalized to chimeric 37M antibody [2]: 1.09 relative to chimeric 37M antibody; Relative blocking activity, assay #3 (96-well): IC50 of inhibition of SCF-induced KIT phosphorylation, normalized to chimeric 37M antibody [2]: 0.98 relative to chimeric 37M antibody; Relative blocking activity, assay #4 (96-well): IC50 of inhibition of SCF-induced KIT phosphorylation, normalized to chimeric 37M antibody [2]: 1.4 relative to chimeric 37M antibody; Relative binding activity (recombinant KIT D4/D5 [5]): 0.85 relative to chimeric antibody 37C (normalized EC50)
Hum13 (antibody, V domains shown) VH: QVQLVQSGAEVKKPGASVKLSCKASGYTFTDYYINWVRQAPGKGLEWIARIYPGSGNTYYNEKFKGRATLTADKSTSTAYMQLSSLRSEDTAVYFCARGVYYFDYWGQGTTVTVSS VL: DIVMTQSPSSLSASVGDRVTITCKASQNVRTNVAWYQQKPGKAPKALIYSASYRYSGVPDRFSGSGSGTDFTLTISSLQPEDFADYFCQQYNSYPRTFGGGTKVEIK | 0.78 relative to chimeric antibody 37C (normalized EC50) | 1.11 relative to chimeric antibody 37C (normalized EC50) | – | Relative blocking activity, assay #3 (96-well): IC50 of inhibition of SCF-induced KIT phosphorylation, normalized to chimeric 37M antibody [2]: 1 relative to chimeric 37M antibody
Hum7 (antibody, V domains shown) VH: QVQLVQSGAEVKKPGASVKLSCKASGYTFTDYYINWVKQAPGKGLEWIARIYPGSGNTYYNEKFKGRATLTAEKSTSTAYMQLSSLRSEDTAVYFCARGVYYFDYWGQGTTVTVSS VL: DIVMTQSPSSLSASVGDRVTITCKASQNVRTNVAWYQQKPGKAPKALIYSASYRYSGVPDRFTGSGSGTDFTLTISSLQPEDFADYFCQQYNSYPRTFGGGTKVEIK | 0.8 relative to chimeric antibody 37C (normalized EC50) | 1.12 relative to chimeric antibody 37C (normalized EC50) | – | –
Hum12 (antibody, V domains shown) VH: QVQLVQSGAEVKKPGASVKLSCKASGYTFTDYYINWVKQAPGKGLEWIARIYPGSGNTYYNEKFKGRATLTAEKSTSTAYMQLSSLRSEDTAVYFCARGVYYFDYWGQGTTVTVSS VL: DIVMTQSPSSLSASVGDRVTITCKASQNVRTNVAWYQQKPGKAPKALIYSASYRYSGVPDRFSGSGSGTDFTLTISSLQPEDFADYFCQQYNSYPRTFGGGTKVEIK | 0.72 relative to chimeric antibody 37C (normalized EC50) | 1.23 relative to chimeric antibody 37C (normalized EC50) | – | –
Hum3 (antibody, V domains shown) VH: QVQLVQSGAEVKKPGASVKLSCKASGYTFTDYYINWVRQAPGKGLEWIARIYPGSGNTYYNEKFKGRATLTADKSTSTAYMQLSSLRSEDTAVYFCARGVYYFDYWGQGTTVTVSS VL: DIVMTQSPSFLSASVGDRVTITCKASQNVRTNVAWYQQKPGKAPKALIYSASYRYSGVPDRFTGSGSGTDFTLTISSLQSEDFADYFCQQYNSYPRTFGGGTKVEIK | 0.88 relative to chimeric antibody 37C (normalized EC50) | – | – | –
Hum2 (antibody, V domains shown) VH: QVQLVQSGAEVKKPGASVKLSCKASGYTFTDYYINWVKQAPGKGLEWIARIYPGSGNTYYNEKFKGRATLTAEKSTSTAYMQLSSLRSEDTAVYFCARGVYYFDYWGQGTTVTVSS VL: DIVMTQSPSFLSASVGDRVTITCKASQNVRTNVAWYQQKPGKAPKALIYSASYRYSGVPDRFTGSGSGTDFTLTISSLQSEDFADYFCQQYNSYPRTFGGGTKVEIK | 0.79 relative to chimeric antibody 37C (normalized EC50) | – | – | –
Hum6 (antibody, V domains shown) VH: QVQLVQSGAELKKPGASVKLSCKASGYTFTDYYINWVKQAPGKGLEWIARIYPGSGNTYYNEKFKGRATLTAEKSTSTAYMQLSSLRSEDSAVYFCARGVYYFDYWGQGTTVTVSS VL: DIVMTQSPSSLSASVGDRVTITCKASQNVRTNVAWYQQKPGKAPKALIYSASYRYSGVPDRFTGSGSGTDFTLTISSLQPEDFADYFCQQYNSYPRTFGGGTKVEIK | 0.7 relative to chimeric antibody 37C (normalized EC50) | 1.15 relative to chimeric antibody 37C (normalized EC50) | – | –
Hum9 (antibody, V domains shown) VH: QVQLVQSGAEVKKPGASVKVSCKASGYTFTDYYINWVRQAPGKGLEWIARIYPGSGNTYYNEKFKGRATITADKSTSTAYMELSSLRSEDTAVYFCARGVYYFDYWGQGTTVTVSS VL: DIVMTQSPSSLSASVGDRVTITCKASQNVRTNVAWYQQKPGKAPKALIYSASYRYSGVPDRFTGSGSGTDFTLTISSLQPEDFADYFCQQYNSYPRTFGGGTKVEIK | 1 relative to chimeric antibody 37C (normalized EC50) | 1.08 relative to chimeric antibody 37C (normalized EC50) | 0.85 relative to chimeric antibody 37C (normalized EC50) | Relative blocking activity, assay #3 (96-well): IC50 of inhibition of SCF-induced KIT phosphorylation, normalized to chimeric 37M antibody [2]: 1.05 relative to chimeric 37M antibody
Hum15 (antibody, V domains shown) VH: QVQLVQSGAEVKKPGASVKVSCKASGYTFTDYYINWVRQAPGKGLEWIARIYPGSGNTYYNEKFKGRVTITADKSTSTAYMELSSLRSEDTAVYFCARGVYYFDYWGQGTTVTVSS VL: DIVMTQSPSSLSASVGDRVTITCKASQNVRTNVAWYQQKPGKAPKALIYSASYRYSGVPDRFSGSGSGTDFTLTISSLQPEDFADYFCQQYNSYPRTFGGGTKVEIK | 0.76 relative to chimeric antibody 37C (normalized EC50) | 0.87 relative to chimeric antibody 37C (normalized EC50) | 0.87 relative to chimeric antibody 37C (normalized EC50) | Relative blocking activity, assay #1 (24-well): IC50 of inhibition of SCF-induced KIT phosphorylation, normalized to chimeric 37M antibody [2]: 0.98 relative to chimeric 37M antibody; Relative blocking activity, assay #3 (96-well): IC50 of inhibition of SCF-induced KIT phosphorylation, normalized to chimeric 37M antibody [2]: 0.99 relative to chimeric 37M antibody
Hum16 (antibody, V domains shown) VH: QVQLVQSGAELKKPGASVKLSCKASGYTFTDYYINWVKQAPGKGLEWIARIYPGSGNTYYNEKFKGRATLTAEKSTSTAYMQLSSLRSEDSAVYFCARGVYYFDYWGQGTTVTVSS VL: DIVMTQSPSSLSASVGDRVTITCKASQNVRTNVAWYQQKPGKAPKSLIYSASYRYSGVPDRFSGSGSGTDFTLTISSLQPEDFATYYCQQYNSYPRTFGGGTKVEIK | 1.02 relative to chimeric antibody 37C (normalized EC50) | 1.2 relative to chimeric antibody 37C (normalized EC50) | – | –
Hum20 (antibody, V domains shown) VH: QVQLVQSGAEVKKPGASVKVSCKASGYTFTDYYINWVRQAPGKGLEWIARIYPGSGNTYYNEKFKGRVTITADKSTSTAYMELSSLRSEDTAVYFCARGVYYFDYWGQGTTVTVSS VL: DIVMTQSPSSLSASVGDRVTITCKASQNVRTNVAWYQQKPGKAPKSLIYSASYRYSGVPDRFSGSGSGTDFTLTISSLQPEDFATYYCQQYNSYPRTFGGGTKVEIK | 0.7 relative to chimeric antibody 37C (normalized EC50) | 0.8 relative to chimeric antibody 37C (normalized EC50) | – | –
Hum18 (antibody, V domains shown) VH: QVQLVQSGAEVKKPGASVKLSCKASGYTFTDYYINWVRQAPGKGLEWIARIYPGSGNTYYNEKFKGRATLTADKSTSTAYMQLSSLRSEDTAVYFCARGVYYFDYWGQGTTVTVSS VL: DIVMTQSPSSLSASVGDRVTITCKASQNVRTNVAWYQQKPGKAPKSLIYSASYRYSGVPDRFSGSGSGTDFTLTISSLQPEDFATYYCQQYNSYPRTFGGGTKVEIK | 0.79 relative to chimeric antibody 37C (normalized EC50) | 1.22 relative to chimeric antibody 37C (normalized EC50) | 0.99 relative to chimeric antibody 37C (normalized EC50) | Relative blocking activity, assay #2 (24-well): IC50 of inhibition of SCF-induced KIT phosphorylation, normalized to chimeric 37M antibody [2]: 1.22 relative to chimeric 37M antibody
